Where a chain is given by its changes, count along the chain named. Entries after “also recorded” stand apart in the source; their conditions may differ.
Experiments:
[1] = system: HEK293T cells expressing 5S-Spinach; test: Live mammalian cell imaging of Spinach-tagged 5S RNA; format: cell-based, human
Method: HEK293 cells cultured on 24-well glass-bottom dishes were transfected with 0.2 μg of pAV-5S construct expressing full length human 5S RNA from its endogenous promoter fused through its 3′ end with either a control sequence (lambda fragment ˜400 nt) or the Spinach aptamer sequence using FuGene 6 (Roche) per manufacturer's instructions. Imaging experiments were performed 48 hours after transfection. Thirty minutes prior to experiment, HEK293 cell media was replaced with imaging media (DMEM with no phenol red or vitamins and supplemented with 25 mM HEPES, 5 mM MgSO4, and 10 μg/ml Hoechst 33342) and 20 μM DFHBI or vehicle were added to the cells to promote RNA-fluorophore complex formation. To induce stress granule formation, cells were treated with 100 mM MgSO4 or 600 mM sucrose for 30 minutes prior to imaging. Live fluorescence images of HEK293 cells were taken with a CoolSnap HQ2 CCD camera through a 100× oil objective mounted on a Nikon TE2000 microscope and analyzed with the NIS-Elements software. A filter cube typically used for fluorescein/EGFP with sputter coated excitation filter 470/40, dichroic mirror 495 (long pass), and emission filter 525/50 (Chroma Technology) was used to detect Spinach.

[2] = literature value used as reference; cited from earlier work
[3] = Tolerance of Spinach stem-loop 2 to mutation, assayed by DFHBI fluorescence; format: biochemical
Method: Secondary structure prediction was performed using Mfold online software. Mutated and truncated RNAs were created by ordering single stranded DNA templates (Integrated DNA Technologies) with the desired mutations or truncations and PCR amplifying these sequences to create double stranded DNA templates using primers which included a 5′ T7 promoter sequence. PCR products were then purified with PCR purification columns (Qiagen) and used as templates for in vitro T7 transcription reactions (Epicentre).
To determine if stem-loop 2 primarily has a structural role in Spinach, mutations were introduced at the stem-loop 2 positions shown in FIG. 11A to test the tolerance of Spinach to mutations at these positions. This was assayed by DFHBI fluorescence. In these experiments, the minimized Spinach structure (SEQ ID NO: 8) in which stem-loop 2 is predicted to sit adjacent to the large internal loop (FIG. 11A). […] To determine if stem-loop 2 can be swapped with a different stem-loop with similar stability without perturbing Spinach-induced DFHBI fluorescence, the UUCG loop sequence was replaced with GAAA and the 4-base pair stem was replaced with a different but still complementary 4-base pair stem (FIG. 11A, SEQ ID NO: 9). […] However, when mismatched bases were inserted in the stem region to prevent the formation of a duplex, DFHBI fluorescence was lost (FIG. 11B).

[4] = Magnesium dependence of 24-2-DFHBI fluorescence; format: biochemical
Text: FIGS. 3A-C illustrate the secondary structures of three RNAs: the original 24-2 structure (3A, SEQ ID NO: 5), a minimized structure 24-2-min (3B, SEQ ID NO: 7), and a first generation derivative of 24-2, designated “Spinach” (3C, SEQ ID NO: 6). RNA structure is shown as predicted by Mfold web-based software (Zuker, “Mfold Web Server for Nucleic Acid Folding and Hybridization Prediction,” Nucl. Acids Res. 31(13): 3406-3415 (2003), which is hereby incorporated by reference in its entirety). In FIG. 3A, bases that could be removed without significant loss in fluorescence are indicated in purple, which includes several bases from the largest loop and largest stem. A-U, G-U and any mismatched base pairs were mutated to G-C base pairs and tested for their effect on 24-2 fluorescence. G-C mutations that reduced 24-2 fluorescence are indicated in red, those which had no effect are indicated by asterisk (*), and those which increased the fluorescence of 24-2 are indicated in green. Base substitutions indicated by an asterisk (*) helped to validate structural predictions because substituting one base pair for another (e.g. A-U for G-C) had negligible effect or increased fluorescence. […] FIG. 3D illustrates the magnesium dependence of 24-2-DFHBI fluorescence. The fluorescence of the 24-2-DFHBI complex was measured at pH 7.4 in the presence of increasing magnesium concentrations. […]

[5] = Excitation and emission spectra of the 24-2-DFHBI complex; format: physicochemical; conditions: 24-2 bound to DFHBI
Text: Unless otherwise stated, all chemistry reagents were purchased from Acros Organics and all cell culture reagents were purchased from Invitrogen. Commercially available starting reagents were used without further purification. DFHBI was synthesized as described in PCT Application Publ. No. WO/2010/096584 to Jaffrey and Paige; Paige and Jaffrey, “RNA Mimics of Green Fluorescent Protein,” Science 333(6042):642-646 (2011), each of which is hereby incorporated by reference in its entirety. Flash chromatography was conducted with 200-400 mesh silica gel 60 (EMD) and with ACS or HPLC grade solvents (Fisher). NMR spectra were recorded on a Bruker DMX-500 spectrometer at 500 MHz. Chemical shifts were reported as parts per million (ppm) downfield from an internal tetramethylsilane standard ([…] for ^1H NMR) or from solvent references. […] UPLC was performed at a flow rate of 0.5 ml/min (monitored with a PDA from 210-500 nm) using a Waters C18 column. Absorbance spectra were recorded with a Thermo Scientific NanoDrop 2000 spectrophotometer with cuvette capability. Fluorescence excitation and emission spectra were measured with a Perkin Elmer LS-55 fluorescence spectrometer.
After eight rounds of SELEX at pH 8.0 using DFHBI-agarose, clones were identified that switched on DFHBI fluorescence. […]

[6] = Spinach-based RNA sensor fluorescence in response to guanine; format: biochemical

Cc1c(-c2cc(NS(=O)(=O)c3ccccc3Cl)n(C)n2)sc2ccc(Cl)cc12 [ML-60218]
effect on 5S-Spinach fluorescence ([1]; Pol III inhibitor treatment): reduces 5S-Spinach fluorescence to baseline levels

Cc1cc2cc3cc(C)c(N)cc3nc2cc1N [acridine yellow]
absolute quantum yield of reference fluorophore [2]: 0.47

CCC(=C/[C@H](C)C/C=C/C(C)=C/[C@@H](C)C(=O)[C@@H](C)[C@H](O)[C@@H](C)C/C(C)=C/C(=O)O)/C=C/[C@@H]1OC(=O)C=C[C@@H]1C [leptomycin B]
effect on 5S-Spinach localization ([1]; after washout of ML-60218): 5S-Spinach accumulates in the nucleus

SEQ ID NO: 16: mismatch stem-loop structure introduced into Spinach; three mismatched nucleotides prevent duplex formation (AUGCUUCGGACG; listed as RNA, chemistry not given here)
DFHBI fluorescence of stem-loop 2 variant relative to Spinach / original stem-loop 2 [3]: reduces fluorescence intensity to baseline

lucifer yellow
absolute quantum yield of reference fluorophore [2]: 0.21

B1: 24-2: RNA aptamer clone from SELEX that switches on DFHBI fluorescence (nucleic acid)
chain: GGGAGACGCAACUGAAUGAAAUGGUGAAGGACGGGUCCAGGUGUGGCUGCUUCGGCAGUGCAGCUUGUUGAGUAGAGUGUGAGCUCCGUAACUAGUCGCGUCAC
modifications: listed as RNA, chemistry not given here
notes: RNA aptamer clone from SELEX that switches on DFHBI fluorescence
fraction of maximal fluorescence ([4]; 0.1 mM magnesium): greater than 50%
magnesium concentration at maximal fluorescence ([4]; pH 7.4): 3 mM
emission peak [5]: 501 nm
excitation peak [5]: 469 nm

B2: SEQ ID NO: 8: derivative (minimized) Spinach sequence containing a shortened stem-loop 2 (nucleic acid)
chain: GACGCGACUGAAUGAAAUGGUGAAGGACGGGUCCAGCUGCUUCGGCAGCUUGUUGAGUAGAGUGUGAGCUCCGUAACUAGUCGCGUC
modifications: listed as RNA, chemistry not given here
DFHBI fluorescence of stem-loop 2 variant relative to Spinach / original stem-loop 2 [3]: essentially identical fluorescence

B3: SEQ ID NO: 9: Spinach derivative with a replacement stem-loop at stem-loop 2 (nucleic acid)
chain: B2 chain with C37G, U38C, G39A, U41G, U42A, C43A, G44A, C46U, A47G, G48C
modifications: listed as RNA, chemistry not given here
DFHBI fluorescence of stem-loop 2 variant relative to Spinach / original stem-loop 2 [3]: did not reduce DFHBI fluorescence; also recorded: nearly identical fluorescence intensities

B4: guanine sensor: Spinach-based turn-on RNA sensor for guanine (nucleic acid)
chain: GACGCGACUGAAUGAAAUGGUGAAGGACGGGUCCAGAUAAUCGCGUGGAUAUGGCACGCAAGUUUCUACCGGGCACCGUAAAUGUCCGACUCUUGUUGAGUAGAGUGUGAGCUCCGUAACUAGUCGCGUC
modifications: chemistry not given here
increase in fluorescence in the presence of guanine ([6]; 0.1 μM RNA, 10 μM DFHBI, 100 μM Gua, versus no guanine): 32 fold
EC50 ([6]; dose-response, 10 μM fluorophore, read-out: half-maximal fluorescence (EC50), guanine): 1.5 µM

— patent publication US10444224B2, “Method for RNA detection and quantification” (Cornell University, priority 2011, dated 2019)
